Source: paper PMC13227277, “Targeting CIRP and IL-6R-mediated microglial inflammation to improve outcomes in intracerebral hemorrhage” (Journal of Advanced Research, 2025)

Tests used:
[1] = target: T1, recombinant human IL-6 receptor alpha (IL-6Rα) (human, UniProt P08887 20-365); test: SPR; competitive inhibition: IL-6Rα on a CM5 chip saturated with TCC (100 times its affinity constant; 1.5 μg/mL), then CIRBP as analyte; conditions: both partners purified
T1 construct: Interleukin-6 receptor subunit alpha, human; UniProtKB P08887 is printed for the docking; also called rhIL-6Rα; rhIL-6R; source: recombinant
T1 sequence (looked up): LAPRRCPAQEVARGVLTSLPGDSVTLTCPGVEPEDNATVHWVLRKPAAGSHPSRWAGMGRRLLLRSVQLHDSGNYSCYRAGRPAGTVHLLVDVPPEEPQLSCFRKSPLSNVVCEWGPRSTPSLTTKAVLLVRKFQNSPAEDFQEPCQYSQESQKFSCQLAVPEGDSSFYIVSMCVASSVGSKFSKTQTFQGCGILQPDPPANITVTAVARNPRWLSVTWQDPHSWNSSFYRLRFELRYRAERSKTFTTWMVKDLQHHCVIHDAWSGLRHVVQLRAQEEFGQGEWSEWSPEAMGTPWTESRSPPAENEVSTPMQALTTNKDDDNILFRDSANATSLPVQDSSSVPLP

IL-6Rα = conditions: macrophages; cited from earlier work
From the text: Previous studies have shown that MD2 binds to a specific 15-amino acid segment of CIRP with high affinity, promoting inflammation. To target this interaction, we designed the peptides TCC and TC using macromolecular docking techniques, with SPR confirming that TCC reduced the binding affinity of CIRP to IL-6Rα.

neurons = test: Neurons co-cultured with CIRP-treated microglial supernatant (CCK-8, immunofluorescence); format: cell-based, mouse
Description: Brain tissues were fixed in paraformaldehyde, dehydrated, and sectioned at 30 µm using a microtome (CM1900UV, Leica, Germany). Sections were floated onto glass slides and left overnight at room temperature. For cultured cells, after discarding the medium, cells were washed twice with PBS, fixed with precooled 4 % PFA at 4 °C for 10 min, and washed three times with PBS (10 min each) on a shaker. Cells were permeabilized with 0.3 % Triton X-100 in PBS for 20 min, blocked with 5 % donkey serum for 1 h, and incubated overnight at 4 °C with primary antibodies (Iba-1, Rabbit polyclonal, Wako; NeuN, Millipore; GFAP, CST; MBP, Abcam; SMI32, Millipore). The next day, sections were brought to room temperature, washed three times with PBST (PBS + Tween-20), and incubated with secondary antibodies for 1 h in the dark. […] Fluorescence was visualized using a DM4000B microscope and images were captured with a Leica TCS SP8 confocal microscope. […]
(§1) To mimic ischemic conditions, neurons at DIV7 were subjected to OGD. […] The supernatants were collected for subsequent CIRP quantification. […]
Microglia were exposed to 1, 10 100 μM concentrations of TCC or TC and PBS respectively for 24 h, and cell viability was measured. […] Cell viability was assessed using the Cell Counting Kit-8 (C0038, Beyotime) according to the manufacturer’s protocol. Absorbance at 450 nm was measured to determine cell viability.

microglia = test: Cytokine mRNA and release in CIRP-stimulated microglia (RT-qPCR, ELISA); format: cell-based, mouse
Description: ELISA was used to quantify CIRP, MD2, IL-6, and TNF-α concentrations in blood and cerebrospinal fluid samples. Samples were processed and stored under standardized conditions to preserve protein integrity. Each target protein was measured using commercial ELISA kits, following the manufacturer’s instructions: Mouse CIRBP ELISA Kit (CSB-EL005440MO, CUSABIO), Mouse TNF-α ELISA Kit (EK282, Lianke Bio), Mouse IL-6 ELISA Kit (CSB-E04639m, CUSABIO), and […].
Primary cortical neurons were isolated from embryonic day 16–18 (E16–E18) C57BL/6 mouse embryos as previously described, and cultured in Neurobasal medium supplemented with B27 and GlutaMAX (Gibco).Primary microglial cells were isolated from the cortices of neonatal (day 1) C57BL/6J mice. After disinfection with 75 % ethanol, the skin and skull were removed, and the brains were placed in ice-cold HBSS. The meninges were peeled off, the cortex was collected, and the hippocampus was discarded. Tissues were digested with 0.25 % trypsin at 37 °C for 12 min, centrifuged at 1200 rpm for 5 min, and resuspended in complete medium. The suspension was transferred to a T75 flask with 15 mL of complete medium. […]
as §1

[2] = target: T1, recombinant human IL-6 receptor alpha …; test: SPR; human IL-6Rα immobilised on a CM5 chip; human CIRBP or TCC as analyte; conditions: both partners purified

KD in the presence of the competitor TCC (1.5 μg/mL) [1]: 17.7 nM | Kd [2]: 4.27 nM
B1: recombinant human CIRP (cold-inducible RNA-binding protein) (natural protein, UniProt Q14011 1-172, looked up)
chain: MASDEGKLFVGGLSFDTNEQSLEQVFSKYGQISEVVVVKDRETQRSRGFGFVTFENIDDAKDAMMAMNGKSVDGRQIRVDQAGKSSDNRSRGYRGGSAGGRGFFRGGRGRGRGFSRGGGDRGYGGNRFESRSGGYGGSRDYYSSRSQSGGYSDRSSGGSYRDSYDSYATHNE
notes: UniProtKB Q14011 is printed for the docking; also called rhCIRP; human CIRBP; source: recombinant
IL-6Rα as receptor for CIRP (IL-6Rα): high-affinity receptor for CIRP in macrophages | neuronal morphology and axonal integrity (neurons; 24-hour co-culture with microglial supernatant, immunofluorescence, n = 4–6): altered morphology and reduced axonal integrity | neuronal viability (neurons; microglial supernatant following CIRP with or without TCC, CCK-8, 24 h, n = 3): impaired neuronal viability | TNF-α and IL-6 mRNA in microglia (microglia; 24-hour CIRP stimulation with or without TCC, RT-qPCR, n = 3–6): upregulated the transcription of pro-inflammatory cytokines TNF-α and IL-6 in microglia | TNF-α secretion by microglia (microglia; rmCIRP 1 μg/mL, 24 h, ELISA, n = 3): the secretion of TNF-α was markedly increased
